Common to all, as to assay: cryo-EM structure; SWR1-hexasome complex, 3.5 Å; SWR1 premixed 1:1 with hexasome, 1 mM ADP:BeF, 25 mM HEPES pH 7.5, 50 mM NaCl, 30°C 10 min, glycerol gradient, no crosslinking
What all share (details): both partners purified

The target in one experiment is S. cerevisiae histone H4 (S. cerevisiae, UniProt P02309 1-103).
The target of another experiment is T1, Swr1 subunit (yeast, UniProt Q05471 1-1514).
T1 construct: Stood in the assay as part of m1; also called Swr1 motor domains
T1 sequence (Q05471 whole entry, the tested form may be a part): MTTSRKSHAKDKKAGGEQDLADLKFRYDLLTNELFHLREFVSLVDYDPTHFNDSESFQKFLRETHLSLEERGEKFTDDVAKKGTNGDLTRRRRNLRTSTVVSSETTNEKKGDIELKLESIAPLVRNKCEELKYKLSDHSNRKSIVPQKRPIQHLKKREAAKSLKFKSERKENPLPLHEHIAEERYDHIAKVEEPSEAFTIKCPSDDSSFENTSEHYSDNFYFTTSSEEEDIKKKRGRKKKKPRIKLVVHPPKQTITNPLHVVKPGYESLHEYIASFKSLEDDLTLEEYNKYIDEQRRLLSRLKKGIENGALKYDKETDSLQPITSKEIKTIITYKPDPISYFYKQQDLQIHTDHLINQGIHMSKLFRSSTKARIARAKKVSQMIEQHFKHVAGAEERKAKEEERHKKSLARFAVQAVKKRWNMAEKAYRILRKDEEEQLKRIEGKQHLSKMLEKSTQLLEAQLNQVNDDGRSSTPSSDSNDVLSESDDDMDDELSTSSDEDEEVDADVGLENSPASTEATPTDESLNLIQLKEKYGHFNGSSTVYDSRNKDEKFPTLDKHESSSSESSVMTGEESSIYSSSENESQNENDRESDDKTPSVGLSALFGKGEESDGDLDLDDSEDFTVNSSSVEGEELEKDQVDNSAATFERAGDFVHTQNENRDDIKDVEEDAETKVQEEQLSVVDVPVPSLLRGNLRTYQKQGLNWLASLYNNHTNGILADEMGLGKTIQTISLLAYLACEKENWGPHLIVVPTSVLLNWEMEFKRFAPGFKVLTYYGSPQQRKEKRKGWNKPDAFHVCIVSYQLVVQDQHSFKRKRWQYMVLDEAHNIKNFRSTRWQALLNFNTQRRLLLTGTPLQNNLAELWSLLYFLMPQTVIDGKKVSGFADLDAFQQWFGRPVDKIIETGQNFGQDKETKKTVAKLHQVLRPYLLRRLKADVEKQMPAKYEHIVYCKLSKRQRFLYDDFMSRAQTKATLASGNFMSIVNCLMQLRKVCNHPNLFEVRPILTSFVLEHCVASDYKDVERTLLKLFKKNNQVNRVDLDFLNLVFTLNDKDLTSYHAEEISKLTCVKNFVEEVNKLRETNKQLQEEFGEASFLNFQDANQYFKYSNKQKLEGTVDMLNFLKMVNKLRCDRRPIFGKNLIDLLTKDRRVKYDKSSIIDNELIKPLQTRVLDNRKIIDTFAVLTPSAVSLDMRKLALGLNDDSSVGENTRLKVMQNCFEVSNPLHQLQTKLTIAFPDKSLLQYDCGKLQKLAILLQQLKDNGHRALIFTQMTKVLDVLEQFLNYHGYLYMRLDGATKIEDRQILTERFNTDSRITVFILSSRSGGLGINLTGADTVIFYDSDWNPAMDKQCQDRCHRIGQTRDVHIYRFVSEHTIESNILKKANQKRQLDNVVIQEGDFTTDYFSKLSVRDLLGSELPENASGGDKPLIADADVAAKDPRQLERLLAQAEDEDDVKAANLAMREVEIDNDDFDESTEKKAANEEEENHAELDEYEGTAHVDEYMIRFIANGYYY

For a further experiment, the target named is T2, Arp6 subunit (yeast, UniProt Q12509 1-438).
T2 construct: Stood in the assay as part of m1
T2 sequence: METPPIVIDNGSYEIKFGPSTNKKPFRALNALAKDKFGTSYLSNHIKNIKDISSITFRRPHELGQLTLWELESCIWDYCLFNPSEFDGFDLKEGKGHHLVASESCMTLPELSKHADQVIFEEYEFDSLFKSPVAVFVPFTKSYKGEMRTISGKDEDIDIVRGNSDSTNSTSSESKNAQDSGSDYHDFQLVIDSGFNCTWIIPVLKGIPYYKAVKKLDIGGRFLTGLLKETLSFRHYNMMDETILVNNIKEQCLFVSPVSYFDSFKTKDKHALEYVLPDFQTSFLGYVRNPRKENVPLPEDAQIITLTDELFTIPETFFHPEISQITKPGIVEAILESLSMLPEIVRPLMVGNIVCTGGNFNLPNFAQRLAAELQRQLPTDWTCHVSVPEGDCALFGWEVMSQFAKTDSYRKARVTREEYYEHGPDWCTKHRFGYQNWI

B1: Swc5 subunit (natural protein, yeast)
chain: MPEVETKIIPNEKEDEDEDGYIEEEDEDFQPEKDKLGGGSDDSDASDGGDDYDDGVNRDKGRNKVDYSRIESESGGLIKTRRARQAEEEYAKTHKYESLTVESIPAKVNSIWEELQEASKNRLLSSSGKVGSVLDGSKEARSTTAAQQEDKILIERNYKFAGETVHEKKWVSRSSAEGQEYLNSLKFKQQAPAAPVQLEKAVRTKSNESRQHLRRPLKRPPLLEQIISGGLRPKLTTLEKSQLDWASYVDRAGLNDELVLHNKDGFLARQEFLQRVGSAEDERYKELRRQQLAQQLQQDSEAS
notes: residues 196-303 built in the structure; Stood in the assay as part of m1
Turning to B1, the binding result with S. cerevisiae histone H4 and in the experiment with Swr1 subunit was “binds” in each case.

B2: Swc6 subunit (natural protein, yeast)
chain: MKALVEEIDKKTYNPDIYFTSLDPQARRYTSKKINKQGTISTSRPVKRINYSLADLEARLYTSRSEGDGNSISRQDDRNSKNSHSFEERYTQQEILQSDRRFMELNTENFSDLPNVPTLLSDLTGVPRDRIESTTKPISQTSDGLSALMGGSSFVKEHSKYGHGWVLKPETLREIQLSYKSTKLPKPKRKNTNRIVALKKVLSSKRNLHSFLDSALLNLMDKNVIYHNVYNKRYFKVLPLITTCSICGGYDSISSCVNCGNKICSVSCFKLHNETRCRNR
notes: Stood in the assay as part of m1
With B2, in the experiment with Arp6 subunit, the binding result is on record as “binds”.
